Experimental data: article PMC6235402, “Paired Immunoglobulin-like Type 2 Receptor Alpha G78R variant alters ligand binding and confers protection to Alzheimer's disease” (PLoS Genetics, 2018)
Read-outs that look alike come from different tables or passages of the source.

Key:
[1] = target: PILRA R72A, full length (human) (UniProt Q9UKJ1); experiment: flow cytometry on cells; 293T cells transfected with full-length PILRA variants, 48 h; incubated with soluble NPDC1-mFc at 50 ug/ml for 30 min on ice; anti-PILRA (APC) and anti-mouse IgG2a (FITC); percent of double-positive cells relative to G78 PILRA (100%)
[2] = target: PILRA R78 (AD protective) variant, G78R (rs1859788), full length (human) (UniProt Q9UKJ1); experiment: as above
[3] = target: PILRA S80G, full length (human) (UniProt Q9UKJ1); experiment: as above
[4] = target: PILRA F76A, full length (human) (UniProt Q9UKJ1); experiment: as above
[5] = target: PILRA Q140A, full length (human) (UniProt Q9UKJ1); experiment: as above
[6] = target: PILRA S141A, full length (human) (UniProt Q9UKJ1); experiment: as above
[7] = target: PILRA R78 (AD protective) variant, G78R (rs1859788), full length (human) (UniProt Q9UKJ1); experiment: as above; remark: listed apart in the source
[8] = target: PILRA R78 (AD protective, G78R) extracellular domain (1-196 aa) fused to murine IgG2a Fc (human) (UniProt Q9UKJ1); experiment: SPR; NPDC1-His binding to mIgG2a-tagged PILRA variants (S6C Fig); who was immobilised and the conditions not given
[9] = target: T1, PILRA G78 (AD risk) extracellular domain (1-196 aa) fused to murine IgG2a Fc (human, UniProt Q9UKJ1 20-196, R78G (by the check's mend)); experiment: as above; conditions: both partners purified
T1 construct: signal peptide in the construct; PILRA, human, ECD residues 1-196 of AJ400841, glycine at position 78; also called G78 PILRA-mFc; PILRA-mFC; not shown: Fc (murine IgG2a), C-terminal, kept
T1 sequence (Q9UKJ1 20-196 R78G): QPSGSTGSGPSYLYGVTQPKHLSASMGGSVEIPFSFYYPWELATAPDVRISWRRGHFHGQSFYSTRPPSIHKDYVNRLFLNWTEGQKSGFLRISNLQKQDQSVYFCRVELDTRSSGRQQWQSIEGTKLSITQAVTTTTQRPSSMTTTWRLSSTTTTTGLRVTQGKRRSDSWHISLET

PILRA R78 (AD protective) variant, G78R (rs1859788), full length (human), sequence (Q9UKJ1 20-303, stated change not applied): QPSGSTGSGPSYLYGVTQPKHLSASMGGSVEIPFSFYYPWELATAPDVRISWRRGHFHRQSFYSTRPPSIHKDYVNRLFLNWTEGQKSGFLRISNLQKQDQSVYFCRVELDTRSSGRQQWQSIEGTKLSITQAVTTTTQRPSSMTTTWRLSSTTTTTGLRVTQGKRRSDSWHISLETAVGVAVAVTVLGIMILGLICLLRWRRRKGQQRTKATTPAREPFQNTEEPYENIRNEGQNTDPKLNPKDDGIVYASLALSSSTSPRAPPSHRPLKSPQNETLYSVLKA
PILRA S80G, full length (human), sequence (Q9UKJ1 20-303 S80G): as the sequence (Q9UKJ1 20-303, stated change not applied) above, with S61G counted along it
PILRA R72A, full length (human), sequence (Q9UKJ1 20-303 R72A): as the sequence (Q9UKJ1 20-303, stated change not applied) above, with R53A counted along it
PILRA S141A, full length (human), sequence (Q9UKJ1 20-303 S141A): as the sequence (Q9UKJ1 20-303, stated change not applied) above, with S122A counted along it
PILRA Q140A, full length (human), sequence (Q9UKJ1 20-303 Q140A): as the sequence (Q9UKJ1 20-303, stated change not applied) above, with Q121A counted along it
PILRA F76A, full length (human), sequence (Q9UKJ1 20-303 F76A): as the sequence (Q9UKJ1 20-303, stated change not applied) above, with F57A counted along it

B1: NPDC1 extracellular domain (1-190 aa) fused to murine IgG2a Fc (Fc fusion)
chain: GHPDVAACPGSLDCALKRRARCPPGAHACGPCLQPFQEDQQGLCVPRMRRPPGGGRPQPRLEDEIDFLAQELARKESGHSTPPLPKDRQRLPEPATLGFSARGQGLELGLPSTPGTPTPTPHTSLGSPVSSDPVHMSPLEPRGGQGDGLALVLILA
percent of G78 PILRA binding [1]: 20 % of G78 | percent of G78 PILRA binding [2]: 35 % of G78 | percent of G78 PILRA binding [3]: 60 % of G78 | percent of G78 PILRA binding [4]: 20 % of G78 | percent of G78 PILRA binding [5]: 22 % of G78 | percent of G78 PILRA binding [6]: 117 % of G78 | percent of G78 PILRA binding [7]: 44 % of G78

B2: NPDC1-His (ligand, human, UniProt Q9NQX5 35-190, looked up)
chain: B1 chain
notes: the construct and its limits are not described in the methods; Likely a soluble extracellular construct
Kd [8]: 76.5 nM | kon [8]: 6800 M⁻¹ s⁻¹ | Kd [9]: 16.8 nM | kon [9]: 22000 M⁻¹ s⁻¹
